Results from patent US20140193434A1 (TORAY INDUSTRIES, published 2014).

T1: human CAPRIN-1 protein on the cell membrane surface of human cancer cell lines (human, UniProt Q14444 2-709)
T1 sequence (looked up): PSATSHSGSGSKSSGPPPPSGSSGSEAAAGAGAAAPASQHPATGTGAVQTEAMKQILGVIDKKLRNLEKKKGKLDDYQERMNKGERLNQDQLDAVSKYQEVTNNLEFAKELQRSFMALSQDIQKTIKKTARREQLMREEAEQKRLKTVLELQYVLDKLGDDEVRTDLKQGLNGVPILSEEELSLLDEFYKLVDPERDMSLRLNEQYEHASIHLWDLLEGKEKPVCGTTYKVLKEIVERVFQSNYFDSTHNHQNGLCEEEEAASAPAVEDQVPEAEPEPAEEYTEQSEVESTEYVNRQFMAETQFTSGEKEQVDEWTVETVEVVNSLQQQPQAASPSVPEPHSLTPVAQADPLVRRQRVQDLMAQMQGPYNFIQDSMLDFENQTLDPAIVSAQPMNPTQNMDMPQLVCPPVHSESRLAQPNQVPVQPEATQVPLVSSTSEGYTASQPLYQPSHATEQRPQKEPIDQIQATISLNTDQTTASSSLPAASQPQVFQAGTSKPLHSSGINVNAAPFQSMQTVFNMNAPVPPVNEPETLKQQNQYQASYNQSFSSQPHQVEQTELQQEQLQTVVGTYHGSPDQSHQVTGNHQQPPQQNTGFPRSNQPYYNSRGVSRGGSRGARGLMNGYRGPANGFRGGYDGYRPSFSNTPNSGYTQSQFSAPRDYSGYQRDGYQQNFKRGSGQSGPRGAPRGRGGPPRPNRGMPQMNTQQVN


Target: T1, human CAPRIN-1 protein on the cell …
Assay: cell-based or functional assay

Row | Binder | cytotoxic activity (ADCC, chromium 51 release) against MCF7, HCT-116, MIAPaCa-2, Caki-2 and QG56 [%]
1 | human-mouse chimeric comparative monoclonal antibody 1 (antibody) heavy: not shown light: DIQMTQSPASLSASVGETVTITCRASGNIHNYLAWYQQKQGKSPQLLVYNAKTLADGVPSRFSGSGSGTQYSLKINSLQPEDFGSYYCQHFWSTLTFGAGTKLELKRTVAAPSVFIFPPSDEQLKSGTASVVCLLNNFYPREAKVQWKVDNALQSGNSQESVTEQDSKDSTYSLSSTLTLSKADYEKHKVYACEVTHQGLSSPVTKSFNRGEC | < 5
2 | human-mouse chimeric comparative monoclonal antibody 4 (antibody, human IgG1, kappa, V domains shown) VH: EVQLHQFGAELVKPGASVKISCKASGYTFTDYNMDWVKQSHGKSLEWIGDINPNYDSTSYNQKFKGKATLTVDKSSSTAYMELRSLTSEDTAVYYCARSRSYDYEGFAYWGQGTLVTVSA VL: SGDRVSLSCRASQSISNYLHWYQQKSHESPRLLIKYASQSISGIPSRFSGSGSGTDFTLSINSVETEDFGMYFCQQSNSWPYTFGAGTKLEIKQ | < 5
3 | human-mouse chimeric comparative monoclonal antibody 3 (antibody, human IgG1, kappa) heavy: not shown light: RTTSHMDSDIQLTQSPASLSASVGETVTITCRASGNIHNYLAWYQQKQGKSPQLLVYNAKTLADGVPSRFSGSGSGTQYSLKINSLQPEDFGSYYCQHFWSTLTFGGGTKLEIKQSDTVAAPSVFIFPPSDEQLKSGTASVVCLLNNFYPREAKVQWKVDNALQSGNSQESVTEQDSKDSTYSLSSTLTLSKADYEKHKVYACEVTHQGLSSPVTKSFNRGEC | < 5
4 | human-mouse chimeric comparative monoclonal antibody 7 (antibody, human IgG1, kappa, V domains shown) VH: LQESGAELARPGASVKLSCKASGYTFTSYWMQWVKQRPGQGLEWIGAIYPGDGDTRYTQKFKGKATLTADKSSSTAYMQLSSLASEDSAVYYCARGEYGNYFAYWGQGTTVTVSS VL: TSDASLGERVTITCKASQDINSYLSWFQQKPGKSPKTLIYRANRLVDGVPSRFSGSGSGQDYSLTISSLEYEDMGIYYCLQYDEFPLTFGGGTKLEIKQ | < 5
